{"source": "paper PMC11510292", "about": "“Heterobivalent Dual-Target Peptide for Integrin-αvβ3 and Neuropeptide Y Receptors on Breast Tumor” (Pharmaceuticals, 2024)", "key": {"[1]": {"experiment": "Biodistribution in SCID mice bearing MCF-7 xenografts", "format": "in vivo", "details": "female, mouse, total radioactivity; for tissue uptake at 1 h / tissue uptake per volume at 1 h: SCID, MCF-7 model, 60 min p.i., 0.1 mL/18.5 MBq IV; for tissue uptake per volume at 1 h: whole blood", "method": "(§1) To evaluate the uptake of the radiolabeled peptide by breast tumors, additional biodistribution studies were performed in SCID mice bearing MCF-7 and MDA-MB-231 xenografts (Table 2). […] The tumor uptakes of the radiolabeled conjugate were 9.30 ± 3.25% for MCF-7 and 4.93 ± 1.01% for MDA-MB-231 (Figure 5). The tumor-to-muscle ratios were 5.65 ± 0.94 for the MCF-7 model and 7.78 ± 3.20 for the MDA-MB-231 model (Figure 6).\n(§2) The animals used in this experiment were provided by the Nuclear and Energy Research Institute (IPEN/CNEN-SP) vivarium. Every effort was made to minimize animal suffering per International Ethical Guidelines. The experimental protocols used in this study were approved by the Scientific Ethics Committee of the IPEN/CNEN-SP. Adult female SCID mice were maintained under controlled environmental conditions (12 h light-dark cycle; constant temperature 21 ± 2 °C), with free access to water and food. Suspensions of cells (5 × 10^6 in 0.1 mL) were subcutaneously injected into the upper back regions of the mice.\n(§3) […] Animals were deeply anesthetized and euthanized at the corresponding biodistribution time point. Blood, brain, spleen, heart, stomach, liver, lungs, kidneys, pancreas, muscle, bone, small intestine, and large intestine were collected and weighed. The radioactivity of each organ/tissue was then determined using the above-mentioned automatic gamma counter. The radioactivity was evaluated as the percentage of injected activity per gram of organ/tissue (%IA/g), using the same injected dose activity as a standard. Receptor-blocking studies in tumor models were also carried out by co-administration of 100 μg of cold-conjugated peptide along with radiopeptide."}, "[2]": {"experiment": "Biodistribution in SCID mice bearing MDA-MB-231 xenografts", "format": "in vivo", "details": "female, SCID, mouse, total radioactivity, MDA-MB231 model, 60 min p.i., 0.1 mL/18.5 MBq IV", "method": "as §1, §2, §3"}, "[3]": {"details": "bone, Block with excess cold peptide, n = 3, read-out: Bone uptake"}, "[4]": {"details": "bone, Non-Block, n = 5, read-out: Bone uptake"}, "[5]": {"details": "brain, Block with excess cold peptide, n = 3, read-out: Brain uptake"}, "[6]": {"details": "brain, Non-Block, n = 5, read-out: Brain uptake"}, "[7]": {"details": "heart, Block with excess cold peptide, n = 3, read-out: Heart uptake"}, "[8]": {"details": "heart, Non-Block, n = 5, read-out: Heart uptake"}, "[9]": {"details": "kidneys, Block with excess cold peptide, n = 3, read-out: Kidneys uptake"}, "[10]": {"details": "kidneys, Non-Block, n = 5, read-out: Kidneys uptake"}, "[11]": {"details": "large intestine, Block with excess cold peptide, n = 3, read-out: Large Intestine uptake"}, "[12]": {"details": "large intestine, Non-Block, n = 5, read-out: Large Intestine uptake"}, "[13]": {"details": "liver, Block with excess cold peptide, n = 3, read-out: Liver uptake"}, "[14]": {"details": "liver, Non-Block, n = 5, read-out: Liver uptake"}, "[15]": {"details": "lungs, Block with excess cold peptide, n = 3, read-out: Lungs uptake"}, "[16]": {"details": "lungs, Non-Block, n = 5, read-out: Lungs uptake"}, "[17]": {"details": "muscle, Block with excess cold peptide, n = 3, read-out: Muscle uptake"}, "[18]": {"details": "muscle, Non-Block, n = 5, read-out: Muscle uptake"}, "[19]": {"details": "pancreas, Block with excess cold peptide, n = 3, read-out: Pancreas uptake"}, "[20]": {"details": "pancreas, Non-Block, n = 5, read-out: Pancreas uptake"}, "[21]": {"details": "small intestine, Block with excess cold peptide, n = 3, read-out: Small Intestine uptake"}, "[22]": {"details": "small intestine, Non-Block, n = 5, read-out: Small Intestine uptake"}, "[23]": {"details": "spleen, Block with excess cold peptide, n = 3, read-out: Spleen uptake"}, "[24]": {"details": "spleen, Non-Block, n = 5, read-out: Spleen uptake"}, "[25]": {"details": "stomach, Block with excess cold peptide, n = 3, read-out: Stomach uptake"}, "[26]": {"details": "stomach, Non-Block, n = 5, read-out: Stomach uptake"}}}
{"compound": "CCCC[C@H](NC(=O)[C@H](CCCNC(=N)N)NC(=O)[C@H](Cc1c[nH]c2ccccc12)NC(=O)[C@H](CSCC(=O)NCCCC[C@@H]1NC(=O)[C@@H](Cc2ccccc2)NC(=O)[C@H](CC(=O)O)NC(=O)CNC(=O)[C@H](CCCNC(=N)N)NC1=O)NC(=O)[C@@H]1CCCN1C(=O)[C@H](CC(N)=O)NC(=O)[C@@H](NC(=O)COCCOCCNC(=O)c1ccc(NN)nc1)[C@@H](C)CC)C(=O)N[C@@H](CCCNC(=N)N)C(=O)N[C@@H](Cc1ccc(O)cc1)C(N)=O", "note": "[[^99mTc]HYNIC-cRGDfk-NPY, metal not drawn]", "values": [{"measurement": "tissue uptake at 1 h", "setting": "[1]; [3]", "value": "1.08 ± 0.77", "unit": "%ID/g"}, {"measurement": "tissue uptake at 1 h", "setting": "[1]; [4]", "value": "1.4 ± 0.72", "unit": "%ID/g"}, {"measurement": "tissue uptake at 1 h", "setting": "[1]; [5]", "value": "0.08 ± 0.01", "unit": "%ID/g"}, {"measurement": "tissue uptake at 1 h", "setting": "[1]; [6]", "value": "0.16 ± 0.06", "unit": "%ID/g"}, {"measurement": "tissue uptake at 1 h", "setting": "[1]; [7]", "value": "0.65 ± 0.24", "unit": "%ID/g"}, {"measurement": "tissue uptake at 1 h", "setting": "[1]; [8]", "value": "1.53 ± 0.45", "unit": "%ID/g"}, {"measurement": "tissue uptake at 1 h", "setting": "[1]; [9]", "value": "20.8 ± 7.02", "unit": "%ID/g"}, {"measurement": "tissue uptake at 1 h", "setting": "[1]; [10]", "value": "24.6 ± 8.6", "unit": "%ID/g"}, {"measurement": "tissue uptake at 1 h", "setting": "[1]; [11]", "value": "3.91 ± 2.11", "unit": "%ID/g"}, {"measurement": "tissue uptake at 1 h", "setting": "[1]; [12]", "value": "6.41 ± 1.63", "unit": "%ID/g"}, {"measurement": "tissue uptake at 1 h", "setting": "[1]; [13]", "value": "1.84 ± 0.13", "unit": "%ID/g"}, {"measurement": "tissue uptake at 1 h", "setting": "[1]; [14]", "value": "3.61 ± 0.73", "unit": "%ID/g"}, {"measurement": "tissue uptake at 1 h", "setting": "[1]; [15]", "value": "1.59 ± 0.34", "unit": "%ID/g"}, {"measurement": "tissue uptake at 1 h", "setting": "[1]; [16]", "value": "3.58 ± 1.22", "unit": "%ID/g"}, {"measurement": "tissue uptake at 1 h", "setting": "[1]; [17]", "value": "0.59 ± 0.37", "unit": "%ID/g"}, {"measurement": "tissue uptake at 1 h", "setting": "[1]; [18]", "value": "1.56 ± 1.41", "unit": "%ID/g"}, {"measurement": "tissue uptake at 1 h", "setting": "[1]; [19]", "value": "1.12 ± 0.42", "unit": "%ID/g"}, {"measurement": "tissue uptake at 1 h", "setting": "[1]; [20]", "value": "1.62 ± 0.3", "unit": "%ID/g"}, {"measurement": "tissue uptake at 1 h", "setting": "[1]; [21]", "value": "3.77 ± 0.95", "unit": "%ID/g"}, {"measurement": "tissue uptake at 1 h", "setting": "[1]; [22]", "value": "10.3 ± 2.18", "unit": "%ID/g"}, {"measurement": "tissue uptake at 1 h", "setting": "[1]; [23]", "value": "2.53 ± 0.74", "unit": "%ID/g"}, {"measurement": "tissue uptake at 1 h", "setting": "[1]; [24]", "value": "5.33 ± 1.88", "unit": "%ID/g"}, {"measurement": "tissue uptake at 1 h", "setting": "[1]; [25]", "value": "2.98 ± 0.57", "unit": "%ID/g"}, {"measurement": "tissue uptake at 1 h", "setting": "[1]; [26]", "value": "6.04 ± 1.15", "unit": "%ID/g"}, {"measurement": "tissue uptake at 1 h", "setting": "[1]; tumor, Block with excess cold peptide, n = 3, p > 0.05 vs non-block, read-out: Tumor uptake", "value": "4.41 ± 2.13", "unit": "%ID/g"}, {"measurement": "tissue uptake at 1 h", "setting": "[1]; tumor, Non-Block, n = 5, read-out: Tumor uptake", "value": "9.3 ± 3.25", "unit": "%ID/g"}, {"measurement": "tissue uptake per volume at 1 h", "setting": "[1]; Block with excess cold peptide, n = 3", "value": "0.92 ± 0.07", "unit": "%ID/mL"}, {"measurement": "tissue uptake per volume at 1 h", "setting": "[1]; Non-Block, n = 5", "value": "1.66 ± 0.89", "unit": "%ID/mL"}, {"measurement": "tissue to tissue ratio at 1 h", "setting": "[1]; tumor and muscle, 37 MBq, MCF-7 tumor-bearing SCID mice, 1 h after IV injection, n = 5", "value": "5.65 ± 0.94"}, {"measurement": "tissue uptake at 1 h", "setting": "[2]; [3]", "value": "0.53 ± 0.16", "unit": "%ID/g"}, {"measurement": "tissue uptake at 1 h", "setting": "[2]; [4]", "value": "1.22 ± 0.28", "unit": "%ID/g"}, {"measurement": "tissue uptake at 1 h", "setting": "[2]; [5]", "value": "0.09 ± 0.01", "unit": "%ID/g"}, {"measurement": "tissue uptake at 1 h", "setting": "[2]; [6]", "value": "0.18 ± 0.04", "unit": "%ID/g"}, {"measurement": "tissue uptake at 1 h", "setting": "[2]; [7]", "value": "0.74 ± 0.2", "unit": "%ID/g"}, {"measurement": "tissue uptake at 1 h", "setting": "[2]; [8]", "value": "1.48 ± 0.29", "unit": "%ID/g"}, {"measurement": "tissue uptake at 1 h", "setting": "[2]; [9]", "value": "13 ± 2.68", "unit": "%ID/g"}, {"measurement": "tissue uptake at 1 h", "setting": "[2]; [10]", "value": "19.3 ± 2.89", "unit": "%ID/g"}, {"measurement": "tissue uptake at 1 h", "setting": "[2]; [11]", "value": "2.22 ± 0.98", "unit": "%ID/g"}, {"measurement": "tissue uptake at 1 h", "setting": "[2]; [12]", "value": "5.18 ± 0.87", "unit": "%ID/g"}, {"measurement": "tissue uptake at 1 h", "setting": "[2]; [13]", "value": "1.41 ± 0.62", "unit": "%ID/g"}, {"measurement": "tissue uptake at 1 h", "setting": "[2]; [14]", "value": "3.75 ± 0.51", "unit": "%ID/g"}, {"measurement": "tissue uptake at 1 h", "setting": "[2]; [15]", "value": "1.95 ± 0.6", "unit": "%ID/g"}, {"measurement": "tissue uptake at 1 h", "setting": "[2]; [16]", "value": "3.27 ± 0.47", "unit": "%ID/g"}, {"measurement": "tissue uptake at 1 h", "setting": "[2]; [17]", "value": "0.33 ± 0.02", "unit": "%ID/g"}, {"measurement": "tissue uptake at 1 h", "setting": "[2]; [18]", "value": "0.88 ± 0.13", "unit": "%ID/g"}, {"measurement": "tissue uptake at 1 h", "setting": "[2]; [19]", "value": "0.7 ± 0.21", "unit": "%ID/g"}, {"measurement": "tissue uptake at 1 h", "setting": "[2]; [20]", "value": "1.35 ± 0.35", "unit": "%ID/g"}, {"measurement": "tissue uptake at 1 h", "setting": "[2]; [21]", "value": "2.16 ± 0.74", "unit": "%ID/g"}, {"measurement": "tissue uptake at 1 h", "setting": "[2]; [22]", "value": "8.3 ± 1.36", "unit": "%ID/g"}, {"measurement": "tissue uptake at 1 h", "setting": "[2]; [23]", "value": "1.51 ± 0.22", "unit": "%ID/g"}, {"measurement": "tissue uptake at 1 h", "setting": "[2]; [24]", "value": "5.02 ± 0.63", "unit": "%ID/g"}, {"measurement": "tissue uptake at 1 h", "setting": "[2]; [25]", "value": "2.05 ± 0.33", "unit": "%ID/g"}, {"measurement": "tissue uptake at 1 h", "setting": "[2]; [26]", "value": "5.63 ± 0.96", "unit": "%ID/g"}, {"measurement": "tissue uptake at 1 h", "setting": "[2]; tumor, Block with excess cold peptide, n = 3, p < 0.05 vs non-block, read-out: Tumor uptake", "value": "2.3 ± 0.41", "unit": "%ID/g"}]}
